Experimental data taken from publication PMC314469, “Protein Interaction Networks by Proteome Peptide Scanning” (PLoS Biology, 2004).
Each block holds one binder with its values, some of them ahead of it.

Assays:
Experiment in all cases: SPOT array
[1] = biological target: T1, Yhr016c SH3 (YSC84_YEAST), P32793
T1 chain: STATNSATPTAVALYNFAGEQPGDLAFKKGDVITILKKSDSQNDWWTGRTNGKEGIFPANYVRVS

[2] = biological target: T2, Rvs167 SH3 (RV167_YEAST), P39743
T2 chain: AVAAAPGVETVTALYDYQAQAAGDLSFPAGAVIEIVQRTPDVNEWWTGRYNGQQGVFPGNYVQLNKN

[3] = biological target: T3, Boi1 SH3 (BOI1_YEAST), P38041
T3 chain: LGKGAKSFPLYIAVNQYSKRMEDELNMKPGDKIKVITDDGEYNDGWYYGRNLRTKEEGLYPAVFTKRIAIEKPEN

[4] = biological target: T4, Yfr024 SH3 (LSB3_YEAST), P43603
T4 chain: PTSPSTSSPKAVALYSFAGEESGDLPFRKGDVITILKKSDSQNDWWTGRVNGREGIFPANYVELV

[5] = biological target: Sho1 SH3 (SHO1_YEAST), P40073
[6] = biological target: T5, Myo5 SH3 (MYO5_YEAST), Q04439
T5 chain: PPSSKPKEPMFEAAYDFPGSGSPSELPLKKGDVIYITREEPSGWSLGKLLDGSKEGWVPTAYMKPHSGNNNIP

[7] = biological target: T6, Boi2 SH3 (BOI2_YEAST), P39969
T6 chain: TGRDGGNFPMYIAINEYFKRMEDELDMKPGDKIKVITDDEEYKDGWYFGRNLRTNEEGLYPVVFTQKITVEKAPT

Chain of Sho1 SH3 (SHO1_YEAST), P40073 (P40073 295-366): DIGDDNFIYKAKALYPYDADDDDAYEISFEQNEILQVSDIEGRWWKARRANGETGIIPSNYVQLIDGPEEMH

B1: YCR020C 147-160 (peptide)
chain: WRWARDTPRAPGLH
- normalised SPOT signal, Boehringer light units (BLU); mean over the file's lines of this peptide [1]: 1970
- normalised SPOT signal, Boehringer light units (BLU); mean over the file's lines of this peptide [2]: 1330
- normalised SPOT signal, Boehringer light units (BLU); mean over the file's lines of this peptide [3]: 46.7
- normalised SPOT signal, Boehringer light units (BLU); mean over the file's lines of this peptide [4]: 7740
- normalised SPOT signal, Boehringer light units (BLU); mean over the file's lines of this peptide [5]: 2030
- normalised SPOT signal, Boehringer light units (BLU); mean over the file's lines of this peptide [6]: 2100
- normalised SPOT signal, Boehringer light units (BLU); mean over the file's lines of this peptide [7]: 3730

B2: YAL024C 308-321 (peptide)
chain: YAVDKIMPPTPAKK
- normalised SPOT signal, Boehringer light units (BLU); mean over the file's lines of this peptide [1]: 22
- normalised SPOT signal, Boehringer light units (BLU); mean over the file's lines of this peptide [2]: 71.5
- normalised SPOT signal, Boehringer light units (BLU); mean over the file's lines of this peptide [3]: 44.9
- normalised SPOT signal, Boehringer light units (BLU); mean over the file's lines of this peptide [4]: 512
- normalised SPOT signal, Boehringer light units (BLU); mean over the file's lines of this peptide [5]: 112
- normalised SPOT signal, Boehringer light units (BLU); mean over the file's lines of this peptide [6]: 110
- normalised SPOT signal, Boehringer light units (BLU); mean over the file's lines of this peptide [7]: 2

B3: YDL133W 210-223 (peptide)
chain: YGDNKKNPESPESV
- normalised SPOT signal, Boehringer light units (BLU); mean over the file's lines of this peptide [1]: 19.5
- normalised SPOT signal, Boehringer light units (BLU); mean over the file's lines of this peptide [2]: 3.3
- normalised SPOT signal, Boehringer light units (BLU); mean over the file's lines of this peptide [3]: 79.4
- normalised SPOT signal, Boehringer light units (BLU); mean over the file's lines of this peptide [4]: 13.3
- normalised SPOT signal, Boehringer light units (BLU); mean over the file's lines of this peptide [5]: 25.3
- normalised SPOT signal, Boehringer light units (BLU); mean over the file's lines of this peptide [6]: 147
- normalised SPOT signal, Boehringer light units (BLU); mean over the file's lines of this peptide [7]: 8.4

B5: YBL035C 295-308 (peptide)
chain: YAVGRIVPDSPTYD
- normalised SPOT signal, Boehringer light units (BLU); mean over the file's lines of this peptide [1]: 257
- normalised SPOT signal, Boehringer light units (BLU); mean over the file's lines of this peptide [2]: 127
- normalised SPOT signal, Boehringer light units (BLU); mean over the file's lines of this peptide [3]: 87.3
- normalised SPOT signal, Boehringer light units (BLU); mean over the file's lines of this peptide [4]: 159
- normalised SPOT signal, Boehringer light units (BLU); mean over the file's lines of this peptide [5]: 39.9
- normalised SPOT signal, Boehringer light units (BLU); mean over the file's lines of this peptide [6]: 189
- normalised SPOT signal, Boehringer light units (BLU); mean over the file's lines of this peptide [7]: 33.2

B8: YER064C 178-191 (peptide)
chain: YPNGRTLPPVPTQV
- normalised SPOT signal, Boehringer light units (BLU); mean over the file's lines of this peptide [1]: 505
- normalised SPOT signal, Boehringer light units (BLU); mean over the file's lines of this peptide [2]: 922
- normalised SPOT signal, Boehringer light units (BLU); mean over the file's lines of this peptide [3]: -0
- normalised SPOT signal, Boehringer light units (BLU); mean over the file's lines of this peptide [4]: 1460
- normalised SPOT signal, Boehringer light units (BLU); mean over the file's lines of this peptide [5]: 17400
- normalised SPOT signal, Boehringer light units (BLU); mean over the file's lines of this peptide [6]: 172
- normalised SPOT signal, Boehringer light units (BLU); mean over the file's lines of this peptide [7]: 18.3

B9: YBL088C 600-613 (peptide)
chain: WLGNKYDPENPFND
- normalised SPOT signal, Boehringer light units (BLU); mean over the file's lines of this peptide [1]: 125
- normalised SPOT signal, Boehringer light units (BLU); mean over the file's lines of this peptide [2]: 149
- normalised SPOT signal, Boehringer light units (BLU); mean over the file's lines of this peptide [3]: 66.1
- normalised SPOT signal, Boehringer light units (BLU); mean over the file's lines of this peptide [4]: 862
- normalised SPOT signal, Boehringer light units (BLU); mean over the file's lines of this peptide [5]: 62.8
- normalised SPOT signal, Boehringer light units (BLU); mean over the file's lines of this peptide [6]: 88.8
- normalised SPOT signal, Boehringer light units (BLU); mean over the file's lines of this peptide [7]: 70.7

B13: YDR429C 58-71 (peptide)
chain: YGSEKGSPAGPSAV
- normalised SPOT signal, Boehringer light units (BLU); mean over the file's lines of this peptide [1]: 8.8
- normalised SPOT signal, Boehringer light units (BLU); mean over the file's lines of this peptide [2]: 28.6
- normalised SPOT signal, Boehringer light units (BLU); mean over the file's lines of this peptide [3]: 65.1
- normalised SPOT signal, Boehringer light units (BLU); mean over the file's lines of this peptide [4]: 13.4
- normalised SPOT signal, Boehringer light units (BLU); mean over the file's lines of this peptide [5]: 46.4
- normalised SPOT signal, Boehringer light units (BLU); mean over the file's lines of this peptide [6]: 50.3
- normalised SPOT signal, Boehringer light units (BLU); mean over the file's lines of this peptide [7]: 40

B16: YCR001W 27-40 (peptide)
chain: YSPWKLSPLLPILY
- normalised SPOT signal, Boehringer light units (BLU); mean over the file's lines of this peptide [1]: 40.4
- normalised SPOT signal, Boehringer light units (BLU); mean over the file's lines of this peptide [2]: 66.5
- normalised SPOT signal, Boehringer light units (BLU); mean over the file's lines of this peptide [3]: 88.3
- normalised SPOT signal, Boehringer light units (BLU); mean over the file's lines of this peptide [4]: 514
- normalised SPOT signal, Boehringer light units (BLU); mean over the file's lines of this peptide [5]: 63.6
- normalised SPOT signal, Boehringer light units (BLU); mean over the file's lines of this peptide [6]: 176
- normalised SPOT signal, Boehringer light units (BLU); mean over the file's lines of this peptide [7]: 99.3

Next, values leading:

- normalised SPOT signal, Boehringer light units (BLU); mean over the file's lines of this peptide [1]: 15.4
- normalised SPOT signal, Boehringer light units (BLU); mean over the file's lines of this peptide [2]: 63.3
- normalised SPOT signal, Boehringer light units (BLU); mean over the file's lines of this peptide [3]: 64
- normalised SPOT signal, Boehringer light units (BLU); mean over the file's lines of this peptide [4]: 131
- normalised SPOT signal, Boehringer light units (BLU); mean over the file's lines of this peptide [5]: 39.6
- normalised SPOT signal, Boehringer light units (BLU); mean over the file's lines of this peptide [6]: 166
- normalised SPOT signal, Boehringer light units (BLU); mean over the file's lines of this peptide [7]: 26.3
B4: YJR016C 463-476 (peptide)
chain: YEGPRGAPGMPEML

- normalised SPOT signal, Boehringer light units (BLU); mean over the file's lines of this peptide [1]: 538
- normalised SPOT signal, Boehringer light units (BLU); mean over the file's lines of this peptide [2]: 2750
- normalised SPOT signal, Boehringer light units (BLU); mean over the file's lines of this peptide [3]: 12400
- normalised SPOT signal, Boehringer light units (BLU); mean over the file's lines of this peptide [4]: 2960
- normalised SPOT signal, Boehringer light units (BLU); mean over the file's lines of this peptide [5]: 28200
- normalised SPOT signal, Boehringer light units (BLU); mean over the file's lines of this peptide [6]: 961
- normalised SPOT signal, Boehringer light units (BLU); mean over the file's lines of this peptide [7]: 48.9
B6: YGL085W 139-152 (peptide)
chain: YKNRKNLPTIPIRL

- normalised SPOT signal, Boehringer light units (BLU); mean over the file's lines of this peptide [1]: 22.5
- normalised SPOT signal, Boehringer light units (BLU); mean over the file's lines of this peptide [2]: 20.5
- normalised SPOT signal, Boehringer light units (BLU); mean over the file's lines of this peptide [3]: 59.5
- normalised SPOT signal, Boehringer light units (BLU); mean over the file's lines of this peptide [4]: 147
- normalised SPOT signal, Boehringer light units (BLU); mean over the file's lines of this peptide [5]: 59.7
- normalised SPOT signal, Boehringer light units (BLU); mean over the file's lines of this peptide [6]: 80.6
- normalised SPOT signal, Boehringer light units (BLU); mean over the file's lines of this peptide [7]: 46.2
B7: YML054C 114-127 (peptide)
chain: YDLTRFLPNHPGGQ

- normalised SPOT signal, Boehringer light units (BLU); mean over the file's lines of this peptide [1]: 92.2
- normalised SPOT signal, Boehringer light units (BLU); mean over the file's lines of this peptide [2]: 220
- normalised SPOT signal, Boehringer light units (BLU); mean over the file's lines of this peptide [3]: 410
- normalised SPOT signal, Boehringer light units (BLU); mean over the file's lines of this peptide [4]: 244
- normalised SPOT signal, Boehringer light units (BLU); mean over the file's lines of this peptide [5]: 139
- normalised SPOT signal, Boehringer light units (BLU); mean over the file's lines of this peptide [6]: 508
- normalised SPOT signal, Boehringer light units (BLU); mean over the file's lines of this peptide [7]: 58.3
B10: YJL149W 279-292 (peptide)
chain: YFVKKIRPGNPLTK

- normalised SPOT signal, Boehringer light units (BLU); mean over the file's lines of this peptide [1]: 1270
- normalised SPOT signal, Boehringer light units (BLU); mean over the file's lines of this peptide [2]: 892
- normalised SPOT signal, Boehringer light units (BLU); mean over the file's lines of this peptide [3]: 115
- normalised SPOT signal, Boehringer light units (BLU); mean over the file's lines of this peptide [4]: 3220
- normalised SPOT signal, Boehringer light units (BLU); mean over the file's lines of this peptide [5]: 132
- normalised SPOT signal, Boehringer light units (BLU); mean over the file's lines of this peptide [6]: 81.2
- normalised SPOT signal, Boehringer light units (BLU); mean over the file's lines of this peptide [7]: 1320
B11: YPR074C 45-58 (peptide)
chain: WSQMRMNPTNPDWI

- normalised SPOT signal, Boehringer light units (BLU); mean over the file's lines of this peptide [1]: 278
- normalised SPOT signal, Boehringer light units (BLU); mean over the file's lines of this peptide [2]: 177
- normalised SPOT signal, Boehringer light units (BLU); mean over the file's lines of this peptide [3]: 107
- normalised SPOT signal, Boehringer light units (BLU); mean over the file's lines of this peptide [4]: 3060
- normalised SPOT signal, Boehringer light units (BLU); mean over the file's lines of this peptide [5]: 191
- normalised SPOT signal, Boehringer light units (BLU); mean over the file's lines of this peptide [6]: 240
- normalised SPOT signal, Boehringer light units (BLU); mean over the file's lines of this peptide [7]: 184
B12: YGR124W 196-209 (peptide)
chain: WLDEKRIPSTPVDY

- normalised SPOT signal, Boehringer light units (BLU); mean over the file's lines of this peptide [1]: 27.8
- normalised SPOT signal, Boehringer light units (BLU); mean over the file's lines of this peptide [2]: 176
- normalised SPOT signal, Boehringer light units (BLU); mean over the file's lines of this peptide [3]: 222
- normalised SPOT signal, Boehringer light units (BLU); mean over the file's lines of this peptide [4]: 113
- normalised SPOT signal, Boehringer light units (BLU); mean over the file's lines of this peptide [5]: 19.5
- normalised SPOT signal, Boehringer light units (BLU); mean over the file's lines of this peptide [6]: 188
- normalised SPOT signal, Boehringer light units (BLU); mean over the file's lines of this peptide [7]: 44.9
B14: YPR115W 96-109 (peptide)
chain: YILPKTDPRSPYYI

- normalised SPOT signal, Boehringer light units (BLU); mean over the file's lines of this peptide [1]: 5100
- normalised SPOT signal, Boehringer light units (BLU); mean over the file's lines of this peptide [2]: 8430
- normalised SPOT signal, Boehringer light units (BLU); mean over the file's lines of this peptide [3]: 534
- normalised SPOT signal, Boehringer light units (BLU); mean over the file's lines of this peptide [4]: 17300
- normalised SPOT signal, Boehringer light units (BLU); mean over the file's lines of this peptide [5]: 179
- normalised SPOT signal, Boehringer light units (BLU); mean over the file's lines of this peptide [6]: 271
- normalised SPOT signal, Boehringer light units (BLU); mean over the file's lines of this peptide [7]: 107
B15: YPL073C 79-92 (peptide)
chain: YSTNRGIPARPSKD
